Experimental data: paper PMC10494239

Target: Interleukin-1 receptor 1 on human umbilical vein endothelial cells (human (endogenous in HUVEC)) (UniProt P14778)
Sequence of UniProt P14778 (P14778 18-569): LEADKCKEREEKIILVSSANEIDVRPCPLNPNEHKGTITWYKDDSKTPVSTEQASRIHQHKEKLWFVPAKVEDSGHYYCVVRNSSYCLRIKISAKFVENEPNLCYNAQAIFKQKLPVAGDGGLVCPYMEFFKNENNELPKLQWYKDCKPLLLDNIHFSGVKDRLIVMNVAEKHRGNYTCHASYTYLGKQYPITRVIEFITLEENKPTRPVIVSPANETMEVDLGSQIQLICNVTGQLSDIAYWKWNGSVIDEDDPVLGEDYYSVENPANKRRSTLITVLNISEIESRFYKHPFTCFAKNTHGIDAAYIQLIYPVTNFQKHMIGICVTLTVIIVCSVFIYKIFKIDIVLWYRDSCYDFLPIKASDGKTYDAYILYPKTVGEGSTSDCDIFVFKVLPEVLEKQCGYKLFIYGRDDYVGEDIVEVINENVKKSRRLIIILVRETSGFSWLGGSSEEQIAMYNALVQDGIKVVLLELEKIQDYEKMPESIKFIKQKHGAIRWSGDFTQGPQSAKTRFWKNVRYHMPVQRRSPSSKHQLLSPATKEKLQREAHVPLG

percent VCAM1-positive HUVECs (flow cytometry) after 4h with unstimulated monocytes (% VCAM pos. cells): 2.5 | percent VCAM1-positive HUVECs (flow cytometry) after 4h with upLPS-stimulated monocytes (% VCAM pos. cells): 25.9 | percent VCAM1-positive HUVECs (flow cytometry) after 4h with upLPS-stimulated monocytes, HUVECs pre-treated 1h with neutralizing IL1R1 antibody (10 µg/ml, AB-269-NA, R&D Systems) (% VCAM1 pos. cells): 18.6 | percent adhesion of calcein-labeled, LPS-pre-stimulated monocytes to HUVECs (remaining fluorescence after washing): 6.7% | percent adhesion of calcein-labeled, non-stimulated monocytes to HUVECs (remaining fluorescence after washing): 3.5%
Substance: cell-surface Interleukin-1α on human primary monocytes (from UniProt P01583 113-271) (ligand)
